Among the data in article PMC11526878 are stoichiometry N values, retold here.

This assay deals with ryanodine receptor 1 (RyR1) purified from rabbit skeletal muscle (rabbit) (UniProt P11716). Kind of assay: cryo-EM structure.

Sequence of ryanodine receptor 1 (RyR1) purified from rabbit skeletal muscle, P11716 1-5037 (P11716 whole entry): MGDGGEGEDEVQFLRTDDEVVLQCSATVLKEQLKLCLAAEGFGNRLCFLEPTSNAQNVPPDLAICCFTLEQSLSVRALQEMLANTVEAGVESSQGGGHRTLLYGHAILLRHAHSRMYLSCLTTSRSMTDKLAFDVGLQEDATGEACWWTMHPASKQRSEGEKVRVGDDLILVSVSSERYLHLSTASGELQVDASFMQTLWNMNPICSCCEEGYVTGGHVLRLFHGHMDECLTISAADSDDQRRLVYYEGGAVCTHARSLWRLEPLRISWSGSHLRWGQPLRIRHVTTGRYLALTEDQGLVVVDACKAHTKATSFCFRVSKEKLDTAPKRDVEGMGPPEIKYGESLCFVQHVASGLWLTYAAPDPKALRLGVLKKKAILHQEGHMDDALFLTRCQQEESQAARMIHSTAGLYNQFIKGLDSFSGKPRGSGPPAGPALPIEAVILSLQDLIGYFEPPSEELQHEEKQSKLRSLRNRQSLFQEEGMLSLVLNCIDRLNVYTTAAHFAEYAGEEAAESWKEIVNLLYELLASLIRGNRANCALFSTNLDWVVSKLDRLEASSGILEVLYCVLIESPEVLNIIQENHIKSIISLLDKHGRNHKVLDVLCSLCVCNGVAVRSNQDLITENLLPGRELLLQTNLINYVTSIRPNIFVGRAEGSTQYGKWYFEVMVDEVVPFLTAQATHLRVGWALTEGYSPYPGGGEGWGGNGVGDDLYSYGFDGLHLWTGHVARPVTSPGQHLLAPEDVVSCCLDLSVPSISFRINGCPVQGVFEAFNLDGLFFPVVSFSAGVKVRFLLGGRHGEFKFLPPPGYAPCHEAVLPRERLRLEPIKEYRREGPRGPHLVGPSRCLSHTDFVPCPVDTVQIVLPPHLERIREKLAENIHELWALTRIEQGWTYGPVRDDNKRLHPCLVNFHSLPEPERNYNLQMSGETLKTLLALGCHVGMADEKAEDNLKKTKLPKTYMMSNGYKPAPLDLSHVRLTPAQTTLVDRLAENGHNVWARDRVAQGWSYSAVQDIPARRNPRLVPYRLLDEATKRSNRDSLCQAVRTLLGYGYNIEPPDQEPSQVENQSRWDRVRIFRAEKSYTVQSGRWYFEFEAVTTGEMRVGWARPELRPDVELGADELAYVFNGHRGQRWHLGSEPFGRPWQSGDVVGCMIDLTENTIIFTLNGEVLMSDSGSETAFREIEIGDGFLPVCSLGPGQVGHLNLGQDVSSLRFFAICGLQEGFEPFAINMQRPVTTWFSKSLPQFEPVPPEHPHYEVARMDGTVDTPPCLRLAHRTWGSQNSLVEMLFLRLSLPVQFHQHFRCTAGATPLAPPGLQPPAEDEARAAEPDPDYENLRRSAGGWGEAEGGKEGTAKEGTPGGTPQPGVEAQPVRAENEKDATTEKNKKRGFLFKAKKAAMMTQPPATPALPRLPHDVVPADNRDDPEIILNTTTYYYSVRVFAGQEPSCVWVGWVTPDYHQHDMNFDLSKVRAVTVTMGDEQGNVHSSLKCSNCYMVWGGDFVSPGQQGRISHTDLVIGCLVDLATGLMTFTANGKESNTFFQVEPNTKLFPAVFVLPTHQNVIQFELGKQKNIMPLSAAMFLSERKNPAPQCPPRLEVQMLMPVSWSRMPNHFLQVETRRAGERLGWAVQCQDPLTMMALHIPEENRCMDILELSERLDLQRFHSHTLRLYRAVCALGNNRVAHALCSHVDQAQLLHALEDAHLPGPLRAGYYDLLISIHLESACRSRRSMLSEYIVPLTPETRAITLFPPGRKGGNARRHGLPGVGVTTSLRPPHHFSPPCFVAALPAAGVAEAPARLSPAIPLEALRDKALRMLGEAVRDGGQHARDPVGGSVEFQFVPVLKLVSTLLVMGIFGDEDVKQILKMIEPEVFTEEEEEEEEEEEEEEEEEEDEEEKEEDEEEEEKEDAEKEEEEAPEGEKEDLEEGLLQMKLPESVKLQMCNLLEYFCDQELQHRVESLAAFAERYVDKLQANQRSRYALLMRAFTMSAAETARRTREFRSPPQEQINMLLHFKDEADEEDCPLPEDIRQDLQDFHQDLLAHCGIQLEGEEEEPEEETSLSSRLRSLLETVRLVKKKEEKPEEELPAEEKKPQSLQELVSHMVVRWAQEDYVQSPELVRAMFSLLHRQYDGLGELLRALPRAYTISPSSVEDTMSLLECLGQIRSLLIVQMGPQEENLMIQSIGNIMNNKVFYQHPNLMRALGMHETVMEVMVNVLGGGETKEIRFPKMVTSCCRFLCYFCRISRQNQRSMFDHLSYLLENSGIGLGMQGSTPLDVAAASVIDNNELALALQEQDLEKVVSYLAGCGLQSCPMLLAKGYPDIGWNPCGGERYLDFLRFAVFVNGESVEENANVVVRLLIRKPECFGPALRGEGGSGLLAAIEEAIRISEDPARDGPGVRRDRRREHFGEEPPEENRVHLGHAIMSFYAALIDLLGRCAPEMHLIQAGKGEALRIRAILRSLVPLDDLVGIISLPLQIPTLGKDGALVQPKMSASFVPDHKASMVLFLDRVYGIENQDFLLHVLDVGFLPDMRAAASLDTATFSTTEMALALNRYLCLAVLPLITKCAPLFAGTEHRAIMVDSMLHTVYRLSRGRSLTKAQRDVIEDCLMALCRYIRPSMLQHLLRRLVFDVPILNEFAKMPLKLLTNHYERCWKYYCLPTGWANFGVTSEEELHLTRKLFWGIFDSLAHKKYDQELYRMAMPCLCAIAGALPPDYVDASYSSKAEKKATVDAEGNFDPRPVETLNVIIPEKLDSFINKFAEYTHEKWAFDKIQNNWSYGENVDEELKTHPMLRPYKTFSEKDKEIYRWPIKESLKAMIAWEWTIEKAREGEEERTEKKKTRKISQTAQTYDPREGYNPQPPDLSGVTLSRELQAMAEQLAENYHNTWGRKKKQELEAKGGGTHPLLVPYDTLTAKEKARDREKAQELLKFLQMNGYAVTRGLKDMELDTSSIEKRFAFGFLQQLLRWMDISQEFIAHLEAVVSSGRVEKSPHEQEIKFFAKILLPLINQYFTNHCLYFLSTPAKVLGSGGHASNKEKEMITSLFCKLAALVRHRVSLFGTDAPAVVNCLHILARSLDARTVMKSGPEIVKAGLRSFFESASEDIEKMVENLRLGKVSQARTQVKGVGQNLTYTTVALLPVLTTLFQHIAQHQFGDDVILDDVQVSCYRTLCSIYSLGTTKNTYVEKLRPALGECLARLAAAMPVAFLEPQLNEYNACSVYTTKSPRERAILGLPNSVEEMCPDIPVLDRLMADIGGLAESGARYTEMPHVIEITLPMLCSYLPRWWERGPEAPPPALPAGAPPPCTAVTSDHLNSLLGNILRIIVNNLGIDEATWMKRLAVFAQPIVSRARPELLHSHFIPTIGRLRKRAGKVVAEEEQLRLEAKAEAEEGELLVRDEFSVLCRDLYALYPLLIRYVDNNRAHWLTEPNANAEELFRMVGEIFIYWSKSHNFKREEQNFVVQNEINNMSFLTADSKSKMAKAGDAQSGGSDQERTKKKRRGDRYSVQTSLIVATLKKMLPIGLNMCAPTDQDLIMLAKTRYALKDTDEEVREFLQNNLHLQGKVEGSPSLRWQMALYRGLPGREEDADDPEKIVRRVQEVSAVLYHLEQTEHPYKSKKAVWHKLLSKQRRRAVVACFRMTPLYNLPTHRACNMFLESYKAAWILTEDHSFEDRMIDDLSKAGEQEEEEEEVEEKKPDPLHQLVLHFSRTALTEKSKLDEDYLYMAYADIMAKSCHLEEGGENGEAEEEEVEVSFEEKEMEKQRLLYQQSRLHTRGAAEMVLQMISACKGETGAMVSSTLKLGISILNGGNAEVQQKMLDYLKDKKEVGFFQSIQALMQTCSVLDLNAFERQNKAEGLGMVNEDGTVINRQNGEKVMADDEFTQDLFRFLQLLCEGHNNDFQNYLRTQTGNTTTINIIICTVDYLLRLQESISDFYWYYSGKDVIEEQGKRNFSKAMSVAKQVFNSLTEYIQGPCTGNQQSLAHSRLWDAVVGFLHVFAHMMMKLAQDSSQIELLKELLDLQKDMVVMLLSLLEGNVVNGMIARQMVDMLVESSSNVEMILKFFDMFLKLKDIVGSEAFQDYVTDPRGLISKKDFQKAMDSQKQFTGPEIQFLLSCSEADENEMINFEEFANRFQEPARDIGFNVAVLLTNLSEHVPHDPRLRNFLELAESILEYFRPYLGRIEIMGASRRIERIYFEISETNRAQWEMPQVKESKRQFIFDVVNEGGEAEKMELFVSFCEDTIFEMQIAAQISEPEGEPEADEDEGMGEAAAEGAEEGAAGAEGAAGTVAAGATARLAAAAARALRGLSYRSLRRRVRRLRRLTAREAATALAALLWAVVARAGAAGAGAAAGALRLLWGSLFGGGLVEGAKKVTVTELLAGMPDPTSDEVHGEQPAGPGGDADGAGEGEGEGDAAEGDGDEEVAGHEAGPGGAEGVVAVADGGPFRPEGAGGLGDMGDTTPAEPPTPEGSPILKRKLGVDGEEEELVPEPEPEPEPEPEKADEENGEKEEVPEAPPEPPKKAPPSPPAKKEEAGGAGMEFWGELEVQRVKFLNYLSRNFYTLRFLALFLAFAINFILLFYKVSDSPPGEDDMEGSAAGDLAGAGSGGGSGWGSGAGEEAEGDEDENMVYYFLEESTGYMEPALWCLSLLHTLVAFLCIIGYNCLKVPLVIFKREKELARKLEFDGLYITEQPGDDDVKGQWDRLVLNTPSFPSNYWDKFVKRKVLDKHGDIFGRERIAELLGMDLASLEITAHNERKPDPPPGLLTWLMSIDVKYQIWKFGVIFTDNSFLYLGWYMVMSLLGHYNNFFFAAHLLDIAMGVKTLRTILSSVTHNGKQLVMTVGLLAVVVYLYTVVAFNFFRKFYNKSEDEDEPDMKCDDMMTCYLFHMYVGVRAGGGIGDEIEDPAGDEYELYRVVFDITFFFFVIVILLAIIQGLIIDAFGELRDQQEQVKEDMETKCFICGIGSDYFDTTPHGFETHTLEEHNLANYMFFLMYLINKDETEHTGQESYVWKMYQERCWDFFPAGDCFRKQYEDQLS

For the substance “ryanodine receptor 1 (RyR1) purified from rabbit skeletal muscle, P11716 1-5037”, the stoichiometry N (in general, the number of molecules, sites or subunits per partner or assembly) came out at 4.
